Data: US20260151519A1 (AKTIS ONCOLOGY, published 2026)
Bridges are numbered along the chain shown (N, C = ends). Primed or numbered codes have the meaning given here. The star is where a group is joined. DOTA = O=C(O)CN1CCN(CC(=O)O)CCN(CC(=O)*)CCN(CC(=O)O)CC1; PEG4″ = 4(ethylene glycol)

Experiments:
Human Nectin-4 [1] = biological target: T1, Human Nectin-4 (human, UniProt Q96NY8 32-349, limits assumed); experiment: Table 2B (DELFIA or SPR)
T1 construct: Protein immobilised on the SPR chip; also called target protein
T1 sequence: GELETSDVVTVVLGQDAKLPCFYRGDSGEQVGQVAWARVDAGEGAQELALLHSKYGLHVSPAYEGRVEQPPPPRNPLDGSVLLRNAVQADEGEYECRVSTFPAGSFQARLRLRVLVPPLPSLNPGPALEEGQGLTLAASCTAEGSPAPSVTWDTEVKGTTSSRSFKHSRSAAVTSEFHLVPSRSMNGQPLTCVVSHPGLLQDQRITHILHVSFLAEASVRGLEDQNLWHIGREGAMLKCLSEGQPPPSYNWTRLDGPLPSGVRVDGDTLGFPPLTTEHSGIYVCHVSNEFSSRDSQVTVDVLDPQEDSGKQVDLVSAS

Human Nectin-4 [2] = biological target: T1, Human Nectin-4; experiment: SPR, Biacore, 1:1 model, 25 C
Description: (§1) Peptide binding affinity to the target protein was measured by SPR using an SPR machine, such as a Biacore T200 instrument. The target protein was covalently coupled to a Biacore chip surface using free amine-coupling chemistry (NHS/EDC) and all uncoupled sites were blocked with ethanolamine. Free peptides were flowed over the target protein surface in increasing concentrations to measure association (Kₐ, 1/Ms⁻¹)) and dissociation (Kd, s⁻¹) to calculate the dissociation equilibrium constant (KD) using an appropriate binding model (see, e.g., Nikolas Stroth, J Biol Methods. 2016; 3 (1)).
(§2) In FIGS. 1A, 1B, 2A, and 2B, lines on graphs are labeled from top to bottom, beginning with letter “a,” and the corresponding concentration is noted to the right of the figure.

Murine Nectin-4 = biological target: T2, Murine Nectin-4 (mouse, UniProt Q8R007 31-347, limits assumed); experiment: SPR, Biacore, 1:1 model, 25 C
T2 construct: Protein immobilised on the SPR chip; also called mouse Nectin-4
T2 sequence: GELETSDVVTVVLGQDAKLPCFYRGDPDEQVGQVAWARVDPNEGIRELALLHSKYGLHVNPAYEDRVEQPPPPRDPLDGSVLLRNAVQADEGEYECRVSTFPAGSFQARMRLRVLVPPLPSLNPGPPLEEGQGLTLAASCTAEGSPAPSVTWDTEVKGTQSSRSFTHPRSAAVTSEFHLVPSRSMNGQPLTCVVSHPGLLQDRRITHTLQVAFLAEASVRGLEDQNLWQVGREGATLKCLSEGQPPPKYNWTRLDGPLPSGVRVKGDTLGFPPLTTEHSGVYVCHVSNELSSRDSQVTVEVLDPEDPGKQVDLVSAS
Description: as §1, §2

[3] = biological target: T3, Human Nectin-4 expressed on cells (human, UniProt Q96NY8 32-510); experiment: radioligand binding, 177Lu-labelled compound, HT-1376 cells
T3 construct: Endogenous on HT-1376 cells; also called endogenous Nectin-4 on HT-1376 cells; cell surface Nectin-4
T3 sequence: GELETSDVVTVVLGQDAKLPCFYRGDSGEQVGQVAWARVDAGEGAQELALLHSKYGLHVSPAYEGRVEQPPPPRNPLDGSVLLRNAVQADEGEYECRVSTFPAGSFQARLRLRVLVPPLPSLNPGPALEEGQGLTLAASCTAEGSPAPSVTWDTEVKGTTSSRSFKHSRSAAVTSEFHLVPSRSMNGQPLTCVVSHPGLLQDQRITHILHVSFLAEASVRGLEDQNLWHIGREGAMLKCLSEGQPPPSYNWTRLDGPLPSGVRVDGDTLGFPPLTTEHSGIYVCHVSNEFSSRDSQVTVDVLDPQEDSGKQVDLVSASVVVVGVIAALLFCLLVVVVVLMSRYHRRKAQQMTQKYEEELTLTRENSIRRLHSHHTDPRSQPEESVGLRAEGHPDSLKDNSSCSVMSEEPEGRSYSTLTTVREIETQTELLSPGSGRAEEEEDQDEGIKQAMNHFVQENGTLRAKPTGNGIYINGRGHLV
Description: On the day of assay, culture medium was removed and PBS was added to cells. Association kinetics were measured at three concentrations of radioligand, and this was performed by the addition of lutetium-177 radioconjugates to cells at various time points from 1 to 60 minutes.

Ac-CEYDEEFFAGLKRLRGGDICYYIKKKFDKVPDLCIEEILDKLGC-OH (designed binder, disulfide 1-34, 20-44) [C9] gave a Kd (Human Nectin-4 [1]) of 7.5 nM, a Kd (Human Nectin-4 [2]) of 7.5 nM and a koff (Human Nectin-4 [2]) of 0.0227 s⁻¹. The Kd (Murine Nectin-4) was 7.83 nM and the koff (Murine Nectin-4) was 0.0213 s⁻¹.

{DOTA-PEG4″}-CEYDEEFFAGLKRLRGGDICYYIKKKFDKVPDLCIEEILDKLGC-OH (designed binder, disulfide 1-34, 20-44) [C12] was tested, and the Kd (Human Nectin-4 [1]) was 10.5 nM, the koff (Human Nectin-4 [2]) was 0.017 s⁻¹ and the Kd (Murine Nectin-4) was 2.94 nM. It also gave a koff (Murine Nectin-4) of 0.0262 s⁻¹.

With {DOTA-PEG4″}-CEYDEEFFAGLKRLRGGDICYYIKKKFDKVPDLCIEEILDKLGC-OH (designed binder, disulfide 1-34, 20-44; also: 138La complex of DOTA) [C91] the Kd (Human Nectin-4 [2]) was 17.9 nM, the koff (Human Nectin-4 [2]) was 0.0297 s⁻¹ and the Kd (Murine Nectin-4) was 24.6 nM. The koff (Murine Nectin-4) was 0.0282 s⁻¹.

{DOTA-PEG4″}-CEYDEEFFTALKRLRGGDICYYIKKKFKKVPKLCIEEILDKLGC-NH2 (designed binder, disulfide 1-34, 20-44; also: 177Lu-labelled in radioligand assay) [C82] showed a Kd [3] of 14.1 nM.
